± gives the uncertainty stated by the source.
Assay: self-splicing fitness, log relative to wild type (ln ratio); higher = more splicing; Tetrahymena group I intron in knt gene, E. coli kanamycin selection, DiMSum; sequences stand for … in CUCUCU…GGAGGGAAAAGUUAUCAGGCAUGCACCUGGUAGCUAGUCUUUAAACCAAUAGAUUGCAUCGGUUUAAAAGGCAAGACCGUCAAAUUGCGGGAAAGGGGUCAACAGCCGUUCAGUACCAAGUCUCAGGGGAAACUUUGAGAUGGCCUUGCAAAGGGUAUGGUAAUAAGCUGACGGACAUGGUCCUAACCACGCAGCCAAGUCCUAAGUCAACAGAUCUUCUGUUGAUAUGGAUGCAGUUCACAGACUAAAUGUCGGUCGGGGAAGAUGUAUUCUUCUCAUAAGAUAUAGUCGGACCUCUCCUUAAUGGGAGCUAGCGGAUGAAGUGAUGCAACACUGGAGCCGCUGGGAACUAAUUUGUAUGCGAAAGUAUAUUGAUUAGUUUUGGAGUACUCGUGGUCG
How it was run: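 Pooled colonies went to amplicon sequencing on an Illumina HiSeq 2500 after six replicate transformations. The plates were LB agar with 100 μg/mL carbenicillin, 50 μM IPTG and 0.2% rhamnose, with or without 25 μg/mL kanamycin, incubated overnight at 37°C or 30°C. The E. coli BL21(DE3) library had all eight P1ex-region intron nucleotides randomised, the intron placed in the knt kanamycin-resistance gene on pET-22b(+). DiMSum fitness is the error-weighted combination of replicate fold changes, kanamycin against none, normalised to wild type.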

Sequence	self-splicing fitness (ln) (30 °C)	self-splicing fitness (ln) (37 °C)
UCCGAGCAAUAUUACGUACG	-3.62 ± 0.47	-2.34 ± 0.45
UCCGAGCAAUAUUACGUCAG	-3.62 ± 0.24	-1.07 ± 0.17
UCCGAGCAAUAUUACGUGGG	-2.8 ± 0.17	-2.56 ± 0.26
UCCGAGCAAUAUUACGUGGU	-2.83 ± 0.29	-2.29 ± 0.21
UCCGAGCAAUAUUACGUUCA	-2.55 ± 0.2	-3.16 ± 0.4
UCCUAGCAAUAUUACGAACG	-1.85 ± 0.2	-1.78 ± 0.3
UCCUAGCAAUAUUACGACGA	0.168 ± 0.12	0.868 ± 0.17
UCCUAGCAAUAUUACGAGGG	-2.97 ± 0.25	-2.7 ± 0.45
UCCUAGCAAUAUUACGAGUA	-1.12 ± 0.14	-0.911 ± 0.13
UCCUAGCAAUAUUACGCACU	-1.17 ± 0.12	-0.784 ± 0.12
UCCUAGCAAUAUUACGCCCA	-1.65 ± 0.34	-0.0863 ± 0.31
UCCUAGCAAUAUUACGCUAA	-2.98 ± 0.31	-3.02 ± 0.29
UCCUAGCAAUAUUACGGAAG	-3.41 ± 0.28	-1.23 ± 0.43
UCCUAGCAAUAUUACGGCGU	-0.736 ± 0.087	-0.557 ± 0.12
UCCUAGCAAUAUUACGGGUG	-0.384 ± 0.07	0.124 ± 0.087
UCCUAGCAAUAUUACGGUAG	-3.32 ± 0.32	-2.28 ± 0.29
UCCUAGCAAUAUUACGGUGA	-0.297 ± 0.053	0.225 ± 0.067
UCCUAGCAAUAUUACGGUGU	-1.71 ± 0.067	-0.222 ± 0.097
UCCUAGCAAUAUUACGUCCG	-3.98 ± 0.25	-3.81 ± 0.34
UCCUAGCAAUAUUACGUCGG	-2.31 ± 0.19	-0.128 ± 0.15
UCCUAGCAAUAUUACGUGCA	-2.86 ± 0.29	-1.72 ± 0.2
UCCUAGCAAUAUUACGUUCC	-2.61 ± 0.27	-1.72 ± 0.4
UCGAAGCAAUAUUACGAAGC	–	-1.84 ± 0.47
UCGAAGCAAUAUUACGACGA	-0.904 ± 0.12	-0.374 ± 0.11
UCGAAGCAAUAUUACGAUAU	-2.63 ± 0.31	-1.52 ± 0.32

Sequence	self-splicing fitness (ln) (30 °C)	self-splicing fitness (ln) (37 °C)
UCGAAGCAAUAUUACGAUCU	-2.67 ± 0.21	-2.44 ± 0.27
UCGAAGCAAUAUUACGAUUG	-2.47 ± 0.27	-1.73 ± 0.23
UCGAAGCAAUAUUACGCCCU	-2.45 ± 0.2	-1.7 ± 0.13
UCGAAGCAAUAUUACGCCUG	-0.508 ± 0.14	-0.022 ± 0.21
UCGAAGCAAUAUUACGGAAG	-1.18 ± 0.2	-2.11 ± 0.38
UCGAAGCAAUAUUACGGCGA	-0.741 ± 0.12	-0.539 ± 0.17
UCGAAGCAAUAUUACGGGGA	-1.17 ± 0.13	-0.644 ± 0.13
UCGAAGCAAUAUUACGGGUG	-0.763 ± 0.083	-0.756 ± 0.097
UCGAAGCAAUAUUACGGUGC	-2.62 ± 0.25	–
UCGAAGCAAUAUUACGUAAC	-2.1 ± 0.19	-2.77 ± 0.38
UCGAAGCAAUAUUACGUACU	-2.88 ± 0.1	-1.67 ± 0.12
UCGAAGCAAUAUUACGUGUU	-3.56 ± 0.2	-2.47 ± 0.19
UCGCAGCAAUAUUACGAAAG	–	-2.04 ± 0.36
UCGCAGCAAUAUUACGAAAU	-3.62 ± 0.21	-2.41 ± 0.24
UCGCAGCAAUAUUACGACAA	-1.14 ± 0.19	-1.48 ± 0.2
UCGCAGCAAUAUUACGACAC	-1.67 ± 0.26	-2.78 ± 0.41
UCGCAGCAAUAUUACGACUU	-1.84 ± 0.2	-0.512 ± 0.24
UCGCAGCAAUAUUACGAGAC	-3.18 ± 0.35	-1.6 ± 0.4
UCGCAGCAAUAUUACGAGUC	–	-2.6 ± 0.38
UCGCAGCAAUAUUACGAUAG	-2.26 ± 0.15	-1.26 ± 0.17
UCGCAGCAAUAUUACGCAAG	-3.01 ± 0.17	-1.69 ± 0.25
UCGCAGCAAUAUUACGCCCA	-0.827 ± 0.19	0.0722 ± 0.18
UCGCAGCAAUAUUACGCGCG	-3.58 ± 0.29	-2.08 ± 0.27
UCGCAGCAAUAUUACGCUCC	-2.9 ± 0.46	–
UCGCAGCAAUAUUACGCUCU	-3.55 ± 0.23	-1.35 ± 0.13

Sequence	self-splicing fitness (ln) (30 °C)	self-splicing fitness (ln) (37 °C)
UCGCAGCAAUAUUACGGCAU	-1.99 ± 0.074	-0.415 ± 0.077
UCGCAGCAAUAUUACGGCUA	0.198 ± 0.091	0.317 ± 0.098
UCGCAGCAAUAUUACGGGGA	-1.31 ± 0.12	-1.11 ± 0.1
UCGCAGCAAUAUUACGUGAG	-0.263 ± 0.042	-0.325 ± 0.063
UCGCAGCAAUAUUACGUGCA	-2.17 ± 0.074	-0.836 ± 0.071
UCGCAGCAAUAUUACGUGCC	-2.66 ± 0.21	-2.7 ± 0.36
UCGCAGCAAUAUUACGUUGC	–	-4.15 ± 0.42
UCGGAGCAAUAUUACGACGG	-3.56 ± 0.43	-1.36 ± 0.29
UCGGAGCAAUAUUACGAGGC	-2.74 ± 0.42	–
UCGGAGCAAUAUUACGAGUU	-2.79 ± 0.33	–
UCGGAGCAAUAUUACGCACG	-3.16 ± 0.34	-0.819 ± 0.16
UCGGAGCAAUAUUACGCAGC	-2.31 ± 0.5	–
UCGGAGCAAUAUUACGCGAG	-3.29 ± 0.45	-1.64 ± 0.27
UCGGAGCAAUAUUACGCGGA	-2.32 ± 0.33	0.916 ± 0.15
UCGGAGCAAUAUUACGGAAC	-3.36 ± 0.38	–
UCGGAGCAAUAUUACGGAAG	–	-0.371 ± 0.41
UCGGAGCAAUAUUACGGAGC	–	-1.64 ± 0.4
UCGGAGCAAUAUUACGGUCG	-2.01 ± 0.15	-0.73 ± 0.25
UCGGAGCAAUAUUACGUCCA	-2.06 ± 0.48	-0.639 ± 0.37
UCGUAGCAAUAUUACGAACU	-3.21 ± 0.38	-2.63 ± 0.33
UCGUAGCAAUAUUACGACAA	-2.42 ± 0.29	-1.5 ± 0.24
UCGUAGCAAUAUUACGAGAC	-1.72 ± 0.37	-3.18 ± 0.37
UCGUAGCAAUAUUACGAGGU	-3.27 ± 0.21	-2.06 ± 0.19
UCGUAGCAAUAUUACGCAGG	-2.49 ± 0.18	-2.17 ± 0.21
UCGUAGCAAUAUUACGCAUC	–	-2.63 ± 0.36

Sequence	self-splicing fitness (ln) (30 °C)	self-splicing fitness (ln) (37 °C)
UCGUAGCAAUAUUACGCCAG	-1.49 ± 0.3	–
UCGUAGCAAUAUUACGCCCG	-0.251 ± 0.19	-0.113 ± 0.17
UCGUAGCAAUAUUACGCGAG	-4.07 ± 0.23	-2.43 ± 0.16
UCGUAGCAAUAUUACGCGCU	-2.31 ± 0.19	-1.78 ± 0.22
UCGUAGCAAUAUUACGCGUG	-0.861 ± 0.1	-0.648 ± 0.096
UCGUAGCAAUAUUACGGACA	-0.671 ± 0.18	-1.49 ± 0.26
UCGUAGCAAUAUUACGGAUG	–	-1.89 ± 0.47
UCGUAGCAAUAUUACGUAGU	-3.61 ± 0.25	-1.99 ± 0.13
UCGUAGCAAUAUUACGUAUA	-2.92 ± 0.31	-1.01 ± 0.28
UCGUAGCAAUAUUACGUAUU	-3.9 ± 0.28	-0.594 ± 0.14
UCGUAGCAAUAUUACGUCCA	-0.914 ± 0.16	-0.15 ± 0.17
UCGUAGCAAUAUUACGUCUA	-1.48 ± 0.1	-0.978 ± 0.12
UCGUAGCAAUAUUACGUGAG	-3.55 ± 0.19	-1.35 ± 0.15
UCGUAGCAAUAUUACGUGCA	-1.18 ± 0.094	-1.14 ± 0.12
UCGUAGCAAUAUUACGUGUA	-2.75 ± 0.12	-0.347 ± 0.11
UCGUAGCAAUAUUACGUUGA	-1.59 ± 0.16	-0.942 ± 0.14
UCGUAGCAAUAUUACGUUGC	-3.02 ± 0.47	–
UCGUAGCAAUAUUACGUUUG	-3.19 ± 0.18	-1.56 ± 0.2
UCUAAGCAAUAUUACGAAAU	-3.53 ± 0.32	–
UCUAAGCAAUAUUACGAAGU	-1.09 ± 0.11	-1.07 ± 0.15
UCUAAGCAAUAUUACGACGC	-0.443 ± 0.12	-0.398 ± 0.21
UCUAAGCAAUAUUACGAGUA	-2.23 ± 0.15	-1.02 ± 0.14
UCUAAGCAAUAUUACGAUUU	-2.92 ± 0.24	-1.37 ± 0.16
UCUAAGCAAUAUUACGCAGC	-1.83 ± 0.23	-2.07 ± 0.31
UCUAAGCAAUAUUACGCCCG	-0.879 ± 0.21	0.0184 ± 0.38

Reference: the supplement of paper PMC7877785
